Source: article PMC10659578, “Mechanism of stepwise electron transfer in six-transmembrane epithelial antigen of the prostate (STEAP) 1 and 2” (eLife, 2023)

How the values were obtained:
[1] = target: Rabbit six-transmembrane epithelial antigen of the prostate 1 (STEAP1) (rabbit); assay: BLI; STEAP1 immobilised on amine reactive second-generation biosensors (EDC/Sulfo-NHS); b5R at 20, 10, 5, 2.5, 1.3 and 0.6 uM; 30 C, 1000 rpm; 20 mM HEPES pH 7.5, 150 mM NaCl, 0.1% LMNG, 0.1% BSA; KD from equilibrium responses (Req) against [b5R]
[2] = target: Rabbit six-transmembrane epithelial antigen of the prostate 1 (STEAP1) (rabbit)

B1: Mouse cytochrome b5 reductase, soluble form (residues 24-301) (enzyme)
chain: SKVPLKQGRSLMDWIRLTKSGKDLTGLKGGLIEVTEEELKKHNKKEDCWICIRGFVYNVSPYMEYHPGGEDELMRAAGADGTDLFNEVHRWVNYESMLKECLVGRMAVKPAVPKDCHEGKRVLNGMLPKSQMSDTLPRDVTDTLPREDLSSPSYDWFQTESSVTIVVYTKQKNISLDSVIVDLQDDSLRAEAVIKDHSYLVHVGLSHEVQENFSVRVIENVGKIEIVLQKKESVSWQCLGDHLEKHDSFIPKKDTGLYYRRCQLISKEDVTHDTRLFC
Kd [1]: 5.9 µM | rate constant of the B to C conversion (reduction of the heme of 1.5 uM STEAP1 pre-incubated with 1.5 uM b5R after mixing with 10 uM NADH; rapid-scan stopped flow, anaerobic) [2]: 0.13 s^–1
